We go through 1 molecule from article PMC9273970, “Mambalgin-2 Inhibits Lung Adenocarcinoma Growth and Migration by Selective Interaction With ASIC1/α-ENaC/γ-ENaC Heterotrimer” (Frontiers in Oncology, 2022).

The target in assay [1] is ASIC1a subunit (acid-sensing ion channel 1a) (human (endogenous in A549)).
In assay [2] the target is human heteromeric ASIC1a/α-ENAC/γ-ENAC channel (human, UniProt P78348 1-528; P37088 1-669; P51170 1-649). In words: cell-based or functional assay.
Sequence of human heteromeric ASIC1a/α-ENAC/γ-ENAC channel (P78348 whole entry, chain 1 of 3): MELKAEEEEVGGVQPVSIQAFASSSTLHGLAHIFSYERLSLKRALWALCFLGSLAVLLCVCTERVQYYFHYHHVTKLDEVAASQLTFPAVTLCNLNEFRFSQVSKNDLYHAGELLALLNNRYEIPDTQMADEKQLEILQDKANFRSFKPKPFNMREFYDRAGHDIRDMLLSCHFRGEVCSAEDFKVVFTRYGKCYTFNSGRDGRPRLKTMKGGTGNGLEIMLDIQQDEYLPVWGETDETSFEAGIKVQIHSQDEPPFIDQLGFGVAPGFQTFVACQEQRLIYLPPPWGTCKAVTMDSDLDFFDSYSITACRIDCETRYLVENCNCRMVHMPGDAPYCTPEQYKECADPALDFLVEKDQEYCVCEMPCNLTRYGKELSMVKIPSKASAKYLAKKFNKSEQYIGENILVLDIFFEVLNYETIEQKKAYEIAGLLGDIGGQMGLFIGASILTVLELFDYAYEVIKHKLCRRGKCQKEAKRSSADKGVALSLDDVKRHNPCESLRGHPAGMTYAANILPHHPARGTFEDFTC
Sequence of human heteromeric ASIC1a/α-ENAC/γ-ENAC channel (P37088 whole entry, chain 2 of 3): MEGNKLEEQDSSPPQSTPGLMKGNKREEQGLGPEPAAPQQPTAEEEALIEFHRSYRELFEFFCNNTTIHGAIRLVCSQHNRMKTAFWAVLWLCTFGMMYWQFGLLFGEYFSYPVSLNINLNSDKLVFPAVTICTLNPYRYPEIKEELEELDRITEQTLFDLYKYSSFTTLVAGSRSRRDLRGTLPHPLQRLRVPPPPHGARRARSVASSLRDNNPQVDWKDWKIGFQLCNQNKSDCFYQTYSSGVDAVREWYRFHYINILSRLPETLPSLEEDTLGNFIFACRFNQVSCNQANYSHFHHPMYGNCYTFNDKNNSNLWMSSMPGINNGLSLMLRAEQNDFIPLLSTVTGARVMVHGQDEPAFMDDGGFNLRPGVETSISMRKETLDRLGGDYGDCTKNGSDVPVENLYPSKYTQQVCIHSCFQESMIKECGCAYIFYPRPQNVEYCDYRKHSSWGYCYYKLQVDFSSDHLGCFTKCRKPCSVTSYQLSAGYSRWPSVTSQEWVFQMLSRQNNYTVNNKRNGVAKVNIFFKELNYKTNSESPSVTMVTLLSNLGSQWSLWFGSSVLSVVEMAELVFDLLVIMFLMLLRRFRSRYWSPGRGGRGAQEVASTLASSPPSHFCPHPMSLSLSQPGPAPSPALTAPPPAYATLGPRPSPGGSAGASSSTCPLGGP
Sequence of human heteromeric ASIC1a/α-ENAC/γ-ENAC channel (P51170 whole entry, chain 3 of 3): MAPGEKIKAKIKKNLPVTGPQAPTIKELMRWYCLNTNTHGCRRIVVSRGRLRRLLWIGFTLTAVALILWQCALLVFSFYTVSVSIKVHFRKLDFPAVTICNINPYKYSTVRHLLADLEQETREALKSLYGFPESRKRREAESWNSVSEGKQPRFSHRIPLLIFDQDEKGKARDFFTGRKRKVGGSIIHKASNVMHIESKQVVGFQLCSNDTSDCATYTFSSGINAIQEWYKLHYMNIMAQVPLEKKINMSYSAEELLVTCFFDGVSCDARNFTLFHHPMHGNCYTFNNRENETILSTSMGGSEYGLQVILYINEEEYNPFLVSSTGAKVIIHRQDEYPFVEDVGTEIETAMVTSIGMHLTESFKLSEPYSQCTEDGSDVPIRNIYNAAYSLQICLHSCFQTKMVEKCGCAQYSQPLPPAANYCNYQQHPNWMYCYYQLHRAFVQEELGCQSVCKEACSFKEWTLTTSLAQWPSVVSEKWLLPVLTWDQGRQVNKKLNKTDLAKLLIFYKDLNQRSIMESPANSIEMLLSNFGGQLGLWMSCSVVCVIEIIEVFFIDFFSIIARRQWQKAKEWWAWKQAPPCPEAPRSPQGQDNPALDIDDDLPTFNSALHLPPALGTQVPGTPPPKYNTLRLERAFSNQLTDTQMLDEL

Sequence of ASIC1a subunit (acid-sensing ion channel 1a) (human (endogenous in A549)) (P78348 whole entry): as the sequence (P78348 whole entry, chain 1 of 3) above

B1: recombinant mambalgin-2 from Dendroaspis polylepis (natural protein)
chain: LKCFQHGKVVTCHRDMKFCYHNTGMPFRNLKLILQGCSSSCSETENNKCCSTDRCNK
With B1, the inhibition of currents evoked by a pH drop from 7.4 to 5.0 in X. laevis oocytes expressing homomeric hASIC1a (two-electrode voltage clamp, mambalgin-2 0–10 μM, 15 s pre-incubation), IC50 in assay [1] is 0.59 μM. The “inhibition of currents evoked by a pH drop from 7.4 to 5.0 in X. laevis oocytes expressing hASIC1a/α-ENAC/γ-ENAC (two-electrode voltage clamp, mambalgin-2 0–10 μM, 15 s pre-incubation), IC50” value in assay [2] was 79 nM.
